The data set is described as follows: label from the status in PepcDB records.
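Also: failed if final PepcDB status was selected cloned or expressed and not failed if soluble or beyond.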

Take “MDRDSSMQAKNLDAQCNPDLKMASANSETLASATHELKIMDVEGGALVDPDHIEEVETSMVIVVDDDDGDVAMVVEEDKHPMRDDPCIEDIMDDEHAPLVAELQSALNNPDDKQASEDPLLEDQEREPDAMSTKTEPSSDAESSHSYHDPMGLLERIEIHDPGDSQDDDDEDDESSNGGGVDGGMRRKMPRAQRWLLWMKRWPWILHEDSDGTLAFCLYCNISINVNNRSRHIQQHNVSLSHQERECNYLAFKKSEEETRGAISDNEIKHEFGTKSYVAAMKQKRISETEAFNNFNWLRWLRWHPWLERSMPTGTIGTCRICSVRMNVEFVYLRKRHETTKGHMEALRNLDSDKRSRKRKRSKSNSVTNSGGDEAEREKESEPEVGPEDAQDTPVVMMNGDVDSGDDPGKWCALIPDTNPQQCRCTLCNCTMAITSFLRHCKTRAHCHMLSTPAEKGSSDIRGIWAVFADMHPWLIADPEDPSIGYCSVCRKRFMYGNSEIKRKNHEKSEKHTLALASAKAGIEVGSADGRGGDNMDEEEAAASDQAQSSQTDDSEDNDDDNWSEIQKLGKGFAHKSSSEPRKATVRAGVRFYPWLCYSKDRKTQICKFCRVRFHNEAAKARHELSARHVKLVKQFKMRQAKLHQGTNTQTKHNAQDDEESQEQDEEYGEEEEDAEEDSQSNFDLGTVQARKTARADNKLFVKPIPATMKGKVMVWKGRFPWLSYKKNEQRGNYAWCKLCEVSLYLPSSKWASKHQRTSRHIRLRIDRKRNGGNPLKTSNKNSGEISTVVATASALASAEARQKAAMAELQAKYDWLDPDANDENHCHCRVCDSRLPIKVFYLRQHDASRKHVENKERQRANAAAAANAPSVSPTSTVDAERQESGMDKESENDMSVRSDGSTAEPLAKRSRRSMEVRRIIRALRDSMGKRQEERSQMDMARDMICSSFDIVTRLRTLERESVAHNESMAQAPPSVTVSPIKPPEPRHVMDLFFDSISPTMKSLPPDLAAEGKSKIMQLVCSLELRAMQRNATTPTPATVSASSKWPSSTTVTPVKTPPAPISAPLASVDADLHSSVVTTPHEYNNGQNNNNDKETVPKEPVTGASSAQVTINGSAKDLPENIRRILTSNQTQVTNRLETDSVRCVPLDKLTTQSRTNVNGRLSQGGTSEAPSTPQADLSNGNTLAMIRQIRVNNNNSSKITVTNTPQMQQPQQAQASITSSTPIMRGGPSSNGCQITTFRTMVNHNRRP”: the protein production entry was “failed”.
As for “MDREQVVALQHQRFAAKKYDPNRRISQKDWEALVEVGRLAPSSIGLEPWKMLLLKNERMKEDLKPMAWGALFGLEGASHFVIYLARKGVTYDSDYVKKVMHEVKKRDYDTNSRFAQIIKNFQENDMKLNSERSLFDWASKQTYIQMANMMMAAAMLGIDSCPIEGYDQEKVEAYLEEKGYLNTAEFGVSVMACFGYRNQEITPKTRWKTEVIYEVIE”, the protein production result is reported as “not failed”.
Turning to “MDRHEYEHRIINRIVENHGRDTRQLLSILREVQHEFRQVSPEAQQKVAESLGVCITQVRAVVDFYSFLSTVPLGKFDIRISDSITDHMLGSREVAAGLCRKLGIQPGEPRQDGRVGLSFTSCTGLCDQGPAGLINGYAIPRLTEDRTDQIARLINDDIPLGEWPEEFFAIKENIRLADRLLGNPVRPGEALERTLALDRETMFGEIETSQLRGRGGAGFNTAWKWRFCYEGPETAAVCPPGQPAAGIERYVVCNADEGEPGTFKDRVLLQSCADQVFEGMTVCAYLVGAKQGFLYLRGEYLYLHDQLEAVLAARRRHGLLGKSILGREGFDFDIEIRLGAGAYICGEESALIESLEGNRGVPRNRPPYPVTHGYLGKPTVVNNVETFFAAAAIAVHGGEWFAEVGTEKSKGTKLLSICGDCARPGIYEYPFGVTIRQVLEDCGAADVLGVQIGGPSGTFLSDKECDRKLAYEDLATGGSFIVFDRTRDVIGIARNFTHFFAHESCGFCTPCRVGTALLKNLLDKIAEGHGATGDLAELSRLGRFVRSASHCGLGQTAANPILSTLERYPEIYQARLKTIDFEPGFDLDGALATARRLSGRDDANAHLSQS”, the protein production entry is recorded as “failed”.
Next, “MDRSLQSTHAKLVARDIQRLTQSPTESNSFSLLGGACVSRVEIVGTIVSRDLTPKFLKFGVDDGTGCVTCVMWLNQLTSSYFSRWDPATILLLASAARKQAAQIRIGAVARVRGRVGSYRGVMQITANVAVAERDPNAEILHWLECLKLGQSCYRVRIQS”: “failed”; “MDRTEQKSIIEGLLFVSGDEGIYPEQIAKVLEIEGNEVIDILEEMQKECEGAHRGLQIVQYAKVYRFATKKEHASYYQKLIEIPTAASLSQAALETLAIVAYRQPITRTEMEEIRGVKTDKALQTLVSHLLIKEMGRAEGPGRPILYGTTKEFLDTFGLKTLDDLPPLSEENEQMNEADLFFGSLQEISK”: “failed”.
“MDRTQFTKIFTRYYMRSTSLGIIFTLFACAIRGVNLVVYLPYVLSASTCFTYLWASRTFTLEQKHQSVVIALILGYTLTFYLYFFLGGHFLFSSLVTINLLLTMVEFGVFWSFFTYALSMTFCFYIDLITAGNDPFKLHALKEFFIQSTFLFLFNLFIYKGLRSIECYWHGIWQKQYEQVEKLERLLEIDELTGCYSRFKGNQLIEQQIQRAQPFTLLYIDLDGFKAVNDEFGHDAGDKVLQITAQRILHLLDDGQFATRIGGDEFILCLPNIEDTKELEQFQSLLHHACSAPIFIHFQNVHIGLSVGMARFPHEGSCSDSLIQHADQMMYLTKRSRT”: the protein production entry is on record as “failed”.
Take “MDSEGFSPSIYTDKTGHPTIGYGYNLSVYSYEGKRITKTYGLLTDILSYGWYKNLDAMRRMVILDLSYNLGLNGLLKFKQFIKAIEDKNYALAVERLQKSPYFNQVKKERQGIWKF”: the protein production entry is recorded as “failed”.
Turning to “MDSENAVKTTYGEFNGKKPFAVMLLGTDTGALDRTEKRGNTDTIIVVVVNPKKKNYTMISIPRDTMADMVGDDSNDVQKINAAYSIGGAKMAMKTVSNLLNIPVKYYALVNMGGLMKLVDYVGGIYVTPPLTFTYSGFPFKKRVRQHLNGQAALAYSRMRYDDPQGDYGRQKRQREVITKLVQKLATADSLTNFSKIANNLSSNVKTNLSFQALKSILANYSDCTSSSDSDYLHGYSTYVNDAAYQIAPTSELQRISNKIRKLLGLKTATVSNRETELNTLNETAGFKFGSGETQNYTLEHHHHHH”, the protein production entry was “failed”.
With “MDSGFTLRAPRNDKRRNPMPAILGTGEHRYRVVENFAKLPDGWQLTDVAAVAVDSLDRVYVFNRGAHPMVVLDREGNFLRSWGEGLFSRAHGLHIDADDNLYCTDDGDHTVRKCTSDGKVLLTIGIPAKPAPFMSGEPFHRCTHTALSPKGEIYVSDGYGNARVHKFTPDGKLIKSWGEPGTDPGQFNIVHNIATDSDGWVYVADRENHRVQVFNGEGKYETQWNNLHRPCALCCCGGRSPTFVIGELGPGLDINRNVPNLGPRLSIVDAKGNRIARLGGEEGPGVASGKFLAPHGIALDSKGDIYVGEVGVTNWATSFPDQEMPAVVRATRCLQKLERVRE”, the protein production entry was “failed”.
As for “MDSGTINIKKWVVIYPVYINSKKTVAEGRRISVSKSCENPNCIEISDCCKHLKLPSAVEIDKAYPRDFMQVGRVRVQLKREDGTLLNPAITSRKHLMQKIAELVPRHPERVKKQEAQKAKKQEPQATTSTSGTSSKSGKGGKKKR”, the entry is “failed”; as for “MDSIKGVFTGNKDTPLEESNLPVEAFTLLRFADELKNARRLGKFKQYIVGRSSEATFADAFEKQEAVIRYLGALDATGENLQASQKQDAAKHCKCTITDVENTLSKFTWARQAHKKMTELKEGGKPLPKNMGEVFFSLCILICFFSSISSYV”, “failed”; as for “MDSNWINCPSVFSSSSSSSRRCQSRSDLYLGGGYEDLEGEDDLKAEFICPFCAEDFDIVGLCCHIDEEHPVEAKNGVCPVCTKRNLCLFLDERFYVQRRRRLRRGGYSSTYLALKKELREANLQSLLGGSSSFTSSTNIDSDPLLSSFMFNSPSVNQSANKSATPVTVGNAATKVSIKESLKRDIQEAPLSGEDQEKAKKSEFVRGLLLSTMLEDDF”, “failed”.
Take “MDSPKRGGPRVRPSFVFCTRTCFPTPPDRMSDSESADPHSPSPTGDGQDTEPRDADGHEVARRGDTEAMEGLLEQGMDPNHTNEHGHSLLMIAAYSDQPEMADLLIEHGADPNRSDPSGSTPLMGCCFKGLAEAAEVLIEAGADVNATGARGATALMYAATYGESALVDLLLEHGADPTTTNEQGQTAAEQAAAEGHEEIAERLRQATAGA”: the protein production entry is recorded as “failed”.
On to “MDSRAAAEPIPHVSPSPFPNPSAVNQTLEERLGLDLVQVYDWDWWGTLVQSGESLLLILSTLWCILLARVVCQKLRLHGSADLCYATEFLLVILPCILLVSVAVDYSGYIGLLMLVATLWFLRTSRALERARTRVQFDLGGNRPMCLSILRALTHLITAVCILAIDFGSFYRPYRKSRQFGAKLMDTGIGLFVFTMAMVSRRTRHWSDLRRSVIYSALPLILLGLARTVSILTLSYGQDAHEYGQHLNAFFTLGFTKFLGSLVSILARKDLHLLPLGFGLLVIHQFGLSVLGISDYVMNEDVERSSFLNANREGLVSLPGFVGLFLLSIYVNRWMVAKSLLTYSEFVRKLRRLFYLVLILWTSFVISAYEIGISRVTCNLGYVIWMLAIGSTTLCASFGAIDFAINSVMPWDPNPWEDHEKGLLSGEAVVKKRGGSVVPFTISQALNKNGLTFFLVANILTGMVNIFLRPEDRSHSESVIILLVYMFLATKLVHELLKRGIRLA”, for which the protein production result is listed as “failed”.
As for “MDSSDSHVGQDVYVDQGLGEPDRLERLWAPYRMSYINTRSGGKQSTTAKRDPFIEVPKMSDEDGLIVARGELVYCVLNLYPYNAGHMMVIPFRKEKNLEDLSLAESAELMLFTQTAIKALKQVSNPDAVNVGLNLGKASGGSVGDHLHVHVVPRWSGDANFMTVIDGVKVLPQTLRQTRAMLAQAWGTIDGAPGTVDPTLTSAIRTAAPKEH”, the entry is “failed”; as for “MDSVELCLPESFSLHYEEELLCRMSNKDRHIDSSCSSFIKTEPSSPASLTDSVNHHSPGGSSDASGSYSSTMNGHQNGLDSPPLYPSAPILGGSGPVRKLYDDCSSTIVEDPQTKCEYMLNSMPKRLCLVCGDIASGYHYGVASCEACKAFFKRTIQGNIEYSCPATNECEITKRRRKSCQACRFMKCLKVGMLKEGVRLDRVRGGRQKYKRRIDAENSPYLNPQLVQPAKKPYNKIVSHLLVAEPEKIYAMPDPTVPDSDIKALTTLCDLADRELVVIIGWAKHIPGFSTLSLADQMSLLQSAWMEILILGVVYRSLSFEDELVYADDYIMDEDQSKLAGLLDLNNAILQLVKKYKSMKLEKEEFVTLKAIALANSDSMHIEDVEAVQKLQDVLHEALQDYEAGQHMEDPRRAGKMLMTLPLLRQTSTKAVQHFYNIKLEGKVPMHKLFLEMLEAKV”, “not failed”; as for “MDTAVNESLSISYNLEQFLIVLSVSLSIATLSKTVPILRKIPYTLLLVIVGMALAFVDVKLINLSPELIMEIFLPPLLFEAAWNLQWRNLKENWFPITLFATLGVVICVVGIAFPLSYWGGMELAIAFLAAAALSATDPVSVIALFKELGASKKLNTLMEGESLFNDGVAVVVFLILVGIPLGTSTFDLSVTLARFVTVIGIGVGCGLVIGFSLSLLTQRFDLPFVEQSLTLVSAYGAYILAENLGGSGVIGVVVVGMVLGNYGSRIGMNPRTRLIVSIFWEFVAFFVNSIIFLLIGDQIGLSSLSDHLNLILIAIAAVVVTRLVSVFGLSLISNKVSDQISSTHITLQEQTVLWWGGLRGSVAIAVALSVPQAIAERQAIIDIVFGVVLFTLLVQGLTTQFVLKGLDLIGDQPQRLEYAELVSRQIALRRVLAELEKTDEFPDINPERLRYKQELVQGQLQSVTDKLKLLLQEYPLLQEVANKKFDQTVLDIEAETYADLIRMGRLEENIMPLLVTLEGENVAEPS”, “failed”.

Values taken from a protein production outcome set (Wang et al. 2014).
